± gives the standard deviation.
Test: protein stability index of a GFP-peptide fusion (GPS, HEK-293T) (PSI 1-6); higher = more stable
[1] = treatment: DMSO, c terminus: a fixed tail appended
[2] = treatment: MLN4924 1 uM, 8 h, c terminus: a fixed tail appended
[3] = treatment: DMSO, c terminus: native
[4] = treatment: MLN4924 1 uM, 8 h, c terminus: native
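Further: 24-mer peptide tiles fused after GFP, lentivirally expressed, FACS-sorted into six equal bins by GFP/DsRed ratio, decoded by Illumina sequencing, PSI is the read-weighted mean bin number.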

Sequence	protein stability index [1]	protein stability index [2]	protein stability index [3]	protein stability index [4]
VGMNFLHCMAPPLLHLDLKPANIL [RIPK4]	2.73 ± 0.57	2.14 ± 0.63	–	–
STCDTLGMADVGTVCDPARSCAIV [ADAMTS4]	3.92 ± 0.34	3.69 ± 0.083	–	–
KVKPAEAETAGAIMAFFLCLGLAL [SLC29A1]	2.99 ± 0.62	2.86 ± 0.71	–	–
SEAKADKILAEAAKLVPMGFTTAT [RAD51]	3.93 ± 0.25	3.93 ± 0.13	–	–
RLLQAQLQAQKEELQSLMHQPKGL [PBXIP1]	2.91 ± 0.14	2.9 ± 0.26	–	–
QFTSSSSIKGSSGLGGGSSRTSCR [KRT17]	4.34 ± 0.12	4.33 ± 0.26	–	–
LGGYVKIDLATWNFQFLPQVNGHP [PTPN9]	2.92 ± 0.57	2.74 ± 0.86	–	–
VNDLAVGLRRLGLHRTEGELQKIV [SLC25A25]	3.03 ± 0.074	3.02 ± 0.28	–	–
AMREAIQSYPSQDKPLPPPPPGSL [SOAT2]	4.23 ± 0.12	4.04 ± 0.35	–	–
NCFEITLELSCDKFPPEEELQREW [CPN1]	2.77 ± 0.24	3.1 ± 0.22	–	–
AVFIALLPILGHRDYKIQASRTWC [PTGFR]	2.95 ± 0.64	2.81 ± 1.1	–	–
LQLETVLEGVVSQIDAVGSKLKML [PKD2L1]	2.37 ± 0.42	2.37 ± 0.11	–	–
KKLKIFAMPMQDIKMILKMVQLDS [PRAME]	2.93 ± 0.58	2.75 ± 0.56	–	–
AYVAEREDELSLVKGSRVTVMEKC [NCK2]	4.31 ± 0.31	4.48 ± 0.19	–	–
TEDCPTGSALTFREEQCAAYNHRT [ADAMTS4]	5.09 ± 0.22	5.03 ± 0.12	–	–
HRERVAMHYQMSVTLKYEIKKLIY [JAGN1]	2.71 ± 0.49	2.92 ± 0.45	–	–
FDPKTKRILTLQKANSWFNCRKN [MMP1]	–	–	2.84 ± 0.41	2.78 ± 0.25
VAWHPVRPIIASISSGVVSIWAQN [RBBP5]	2.48 ± 0.48	2.5 ± 0.39	–	–
GHLEVVRYLVGEHQADLEVANRHG [FEM1A]	3.4 ± 0.48	3.24 ± 0.41	–	–
SGSDSGGSSSSSSSSINSPDRASG [FAM104A]	5.36 ± 0.33	5.47 ± 0.11	–	–
PGPERLFDSHRLPGDCFLLLVLLL [AUP1]	2.46 ± 0.54	2.14 ± 0.59	–	–
PYMNPSPFTVSPNTHVSQVFNLFR [CLCN6]	2.64 ± 0.16	2.73 ± 0.2	–	–
TSCIVIILIIISVIVQIKQPRKKY [NETO1]	3.26 ± 0.17	3 ± 0.16	–	–

Sequence	protein stability index [1]	protein stability index [2]	protein stability index [3]	protein stability index [4]
VSREENREDKATIKCETSPPSSPR [PPFIA4]	5.49 ± 0.48	5.53 ± 0.21	–	–
LDLLLDMPPVSYDVQLLHSWNNND [SPSB1]	2.66 ± 0.32	2.65 ± 0.23	–	–
SWSIQMRQHHHQSSFPGSLPQETN	3.51 ± 0.1	3.53 ± 0.11	–	–
PPTLQEAGLSHTEVLFVQDLTDE [FAF2]	–	–	4.88 ± 0.25	4.92 ± 0.15
SSSRPISPGLSYASHTVGFTPPTS [CCDC6]	3.54 ± 0.22	3.74 ± 0.15	–	–
SRSRSRSRSNSRSRSYSPRRSRGS [SRSF1]	5.37 ± 0.24	5.6 ± 0.2	–	–
SYVCRCKQGYILNSDQTTCRIQDL [MATN2]	2.4 ± 0.31	2.46 ± 0.42	–	–
LSSPEFSELCIWLGSQIKSLCNLE [FAM98B]	2.17 ± 0.81	2.76 ± 0.82	–	–
TIIASNAEEAEILHSACGLSKDHQ [TOR1AIP2]	4.48 ± 0.14	4.54 ± 0.24	–	–
IHGLPTEGYQALYHAVVEPMLWNP [C22orf31]	2.19 ± 0.11	2.13 ± 0.21	–	–
VALLNKTNVKFLAITTDCLQILAY [CTNNB1]	2.86 ± 0.51	2.91 ± 0.42	–	–
PTVTTSWQSESLPVSLSASQSWHT [BCL2L13]	3.25 ± 0.31	3.12 ± 0.22	–	–
EGCGPPLRRWLRANLAASGGYAIA [TSPAN10]	1.94 ± 0.21	2.52 ± 0.3	–	–
TPIEVLCENFPEMATYLRYVRRLD [CSNK1G3]	2.39 ± 0.3	2.6 ± 0.44	–	–
PRLCYLVKEGGSYGFSLKTVQGKK [PDZK1]	3.02 ± 0.12	–	–	–
HTTLQCLAARVIVNHRIYYKGHIP [FEM1C]	2.43 ± 0.17	2.43 ± 0.25	–	–
DYVMTTLLFSDKNVNSNLITWNRV [TRIP13]	2.4 ± 0.75	2.36 ± 0.62	–	–
KYREAARLEINVLKKIKEKDKENK [CLK3]	4.45 ± 0.18	4.25 ± 0.41	–	–
ISDALIRRVHLTEDQWGKGTLTPR [TRIM9]	2.92 ± 0.14	3.11 ± 0.41	–	–
LRASGSLCGPHAKAPYLCEATHEP	2.84 ± 0.22	3.1 ± 0.27	–	–
WKEWGFTGVQEVLSALLRATPGEY [SPAG8]	2.06 ± 0.78	2.2 ± 0.53	–	–
GAVYADSGNFERCIRLWKYALDMQ [FEM1A]	2.38 ± 0.14	2.24 ± 0.38	–	–
SYPRTPHTPGTPKSAILVPSEKKV [MAP2]	4.6 ± 0.053	4.74 ± 0.26	–	–

Sequence	protein stability index [1]	protein stability index [2]	protein stability index [3]	protein stability index [4]
ICQKTATKKRKTFDSSRQRAEGTD [ZC2HC1A]	4.8 ± 0.1	4.67 ± 0.53	–	–
DALNRRKAQLLARVNKEHEHKLKV [TRIM9]	3.47 ± 0.11	3.29 ± 0.092	–	–
TIKVSYARPSSASIRDANLYVSGL [ELAVL3]	2.37 ± 0.076	2.23 ± 0.3	–	–
LVYENFYADFGPLNLAMVYRYCCK [CDC14A]	2.8 ± 0.27	2.5 ± 0.55	–	–
HRGLLTMQLKSPMPSSTTQKDSYQ [SPAG8]	3.87 ± 0.25	4 ± 0.21	–	–
MNLMNELKQNFSKSWHDMQTTTAY [TPD52L1]	2.62 ± 0.34	2.47 ± 0.15	–	–
AALQRSLAAALAQHSVPLQLELRA [TRADD]	2.89 ± 1.2	2.46 ± 0.73	–	–
FQFTDWPEQGVPKSGEGFIDFIGQ [PTPRD]	2.68 ± 0.22	2.84 ± 0.31	–	–
TLGKVLKVIVVMRSLFIDRTIVKG [MED27]	3.01 ± 0.66	2.74 ± 0.97	–	–
EADPEMIKRAEDYGPVEVISHWHP [CLPTM1]	4.42 ± 0.24	4.26 ± 0.38	–	–
VGGVLRGLNHSLSYDVALHRTRLQ [SCARA5]	2.59 ± 0.18	2.84 ± 0.32	–	–
ACMMTITFLPYTFSLMVTFPDVPL [TMEM175]	3.1 ± 0.09	3.26 ± 0.33	–	–
KFPGQSSFLWQRGRKFLQKHLNAS [TOR1AIP2]	2.47 ± 0.14	2.51 ± 0.22	–	–
APGRPGHPSGHWATCRLCGEQVGR [ZBED3]	2.331 ± 0.015	2.81 ± 0.41	–	–
LLDEEEALAKKFIDKNTQLTLQVY [TRIM14]	2.53 ± 0.42	2.72 ± 0.34	–	–
GHSSSRDDYPSRGYSDRDGYGRDR [RBMX]	4.87 ± 0.18	4.88 ± 0.16	–	–
SREYKLVMLGAGGVGKSAMTMQFI [RIT1]	2.51 ± 0.46	2.27 ± 0.42	–	–
PFKRFLRKKSKPKKCVKKFVEYCD [SMOC2]	2.45 ± 0.091	2.59 ± 0.26	–	–
RGPGASGEQPEPGEAAAGGAAEEA [ACBD3]	5.54 ± 0.23	5.62 ± 0.15	–	–
HTHRAHTVVPLDDATQEYKEKLQK [TRIM39]	5.39 ± 0.2	5.3 ± 0.35	–	–
RWKRRRSYSREHEGRLRYPSRREP [CLK3]	3.86 ± 0.39	4.14 ± 0.36	–	–
LNLGPALSAALASSQKQHSFTSSD [C8orf76]	3.31 ± 0.31	3.35 ± 0.19	–	–
ADQKLVIIKQIPVEQMTKEERQAA [NEK8]	4.62 ± 0.24	4.61 ± 0.23	–	–

Sequence	protein stability index [1]	protein stability index [2]	protein stability index [3]	protein stability index [4]
DCEVFRQRFRQFQYREAAGPHEAF [ZNF449]	2.94 ± 0.29	2.93 ± 0.28	–	–
ALMRMLDNLGYRTGYPYRYPALRE [ADD1]	2.79 ± 0.4	2.65 ± 0.59	–	–
KCQVGFSSSDLVMRARDSVYHIEC [ISL2]	1.99 ± 0.36	2.3 ± 0.31	–	–
ISVLQQQGSLSNTYLSKVDPDGKK [FBXO33]	4.45 ± 0.18	4.46 ± 0.2	–	–
IAATELEKEESRREAEKQNYLAEH [TNNI2]	5.3 ± 0.25	5.37 ± 0.26	–	–
AEKWQKEKDRIKSFTTNEKAILEQ [TRIM29]	4.76 ± 0.21	4.8 ± 0.22	–	–
FTTNKCKGFGFVTMTNYDEAAMAI [ELAVL3]	2.49 ± 0.65	2.51 ± 0.14	–	–
EEAISVVMSGKMSVSKAQSIYGIP [LCOR]	2.69 ± 0.17	2.53 ± 0.087	–	–
LTQKKPFADEKNILHIMVKVVKGH [RIPK4]	2.01 ± 0.18	1.79 ± 0.48	–	–
GGTEEKSSLLMSCLACDTWAVIL [RPAIN]	–	–	2.7 ± 0.86	2.4 ± 0.84
GKTYCKRDYVRLFGIKCAKCQVGF [ISL2]	2.03 ± 0.19	2.17 ± 0.23	–	–
VCGGAQRPGHLPGLLLGSHGLLGS [CDC25B]	1.9 ± 0.96	3.24 ± 1.6	–	–
AILQNHTDFKDKIVLDVGCGSGIL [CARM1]	2.31 ± 0.21	2.34 ± 0.25	–	–
HPVFYQGTYSQALNDAKRELRFLL [FAF2]	2.26 ± 0.36	2.15 ± 0.14	–	–
LRLEWETQQELRKIREKEEWIKLD [IQUB]	3.12 ± 0.62	3.44 ± 0.63	–	–
VSSLSEVEEVDMAEEFEQPTLSCE [ELOA2]	5.57 ± 0.27	5.52 ± 0.17	–	–
AESQGCNHEEDAGVRCNTPAMGLQ [LOXL2]	5.34 ± 0.27	5.29 ± 0.3	–	–
RTIRHVYCKTSDGRVVPESQCQME [ADAMTSL2]	4.08 ± 0.16	4.09 ± 0.31	–	–
LYYLRASKAAAGKMNLYESFAQAT [INTS3]	2.59 ± 0.39	2.57 ± 0.31	–	–
TVVGLFNVRDRDSGRNGEVSLDIS [PCDHGC5]	2.83 ± 0.37	3.13 ± 0.19	–	–

Reference: the supplement of paper PMC10567573
